Results: paper PMC4532613 (Molecular and biochemical parasitology, 2015)

Biological target: the molecule itself
Assay: SEC

B1: Ca^2+-binding mutant FCaBP^E151Q/E188Q, recombinant (natural protein)
chain: MGACGSKGSTSDKGLASDKDGKKAKDRKEAWERIRQAIPREKTAEAKQRRIELFKKFDKNETGKLCYDEVHSGCLEVLKLDEFTPRVRDITKRAFDKARALGSKLENKGSEDFVEFLEFRLMLCYIYDFFELTVMFDEIDASGNMLVDEEQLKRAVPKLEAWGAKVEDPAALFKELDKNGTGSVTFDQFAAWASAVKLDADGDPDNVPESA
In the case of B1, the “stoichiometry N” value is reported as 2.
